Experiments:
purified protein = substrate: C[S+](CC[C@H](N)C(=O)O)C[C@H]1O[C@@H](n2cnc3c(N)ncnc32)[C@H](O)[C@@H]1O; assay: purified protein; settings: 60:40 PE 18:1/18:1:DPPG 100 nm unilamellar liposomes 1 mg/ml, HEPES pH 7.5, 37 °C
[1] = target: the molecule itself; assay: native MS; native ion mobility MS; 5 uM enzyme buffer exchanged into 200 mM ammonium acetate, pH 7.5; nanoESI under gentle conditions (Waters Synapt G2-Si); collision-induced unfolding of the 20+ dimer ion at 4 to 110 V

| Protein | Km (purified protein) | kcat (purified protein) | stoichiometry N [1] |
| --- | --- | --- | --- |
| EC-CFAS (Escherichia coli K-12) (protein) SSSCIEEVSVPDDNWYRIANELLSRAGIAINGSAPADIRVKNPDFFKRVLQEGSLGLGESYMDGWWECDRLDMFFSKVLRAGLENQLPHHFKDTLRIAGARLFNLQSKKRAWIVGKEHYDLGNDLFSRMLDPFMQYSCAYWKDADNLESAQQAKLKMICEKLQLKPGMRVLDIGCGWGGLAHYMASNYDVSVVGVTISAEQQKMAQERCEGLDVTILLQDYRDLNDQFDRIVSVGMFEHVGPKNYDTYFAVVDRNLKPEGIFLLHTIGSKKTDLNVDPWINKYIFPNGCLPSVRQIAQSSEPHFVMEDWHNFGADYDTTLMAWYERFLAAWPEIADNYSERFKRMFTYYLNACAGAFRARDIQLWQVVFSRGVENGLRVAR | 68 µM | 0.217 s⁻¹ | – |
| Pseudomonas aeruginosa PAO1 cyclopropane fatty acid synthase (PA-CFAS) (enzyme, UniProt Q9HT28 1-394, looked up, Cyclopropane fatty acid synthase, gene PA5546, P. aeruginosa PAO1, amplified from the PAO1 genome and cloned into pET16b; monomer with His6 tag MWcalc = MWobs = 46,486 Da; The native-MS dimer mass (92,972 Da) is twice the tagged monomer mass, so the tag was present in the assay; also called PA5546; Pseudomonas CFAS enzyme) MIAQLPSELLSLQLPLRIRIGDAQAFDLGPDPQVTMVIRDPSLLTEITHPSLDALGKAYVEKRLDIEGPISQVIGIGDALSEALGEPDGGAPPVRESHDKDTDAEAIHYHYDLSNDFYQLWLDPEMVYSCAYFETGKEDLATAQLAKLRHLCRKLRLQPGEKLLDVGCGWGGLARLAAREFGVEVTGITLSKEQLALGRERVKAEGLEDRVTLKLLDYRDLPRDGRFDKVVSVGMFEHVGHANLGLYFQQLYEAVRPGGLVMNHGITSRYTDGRPVGKGAGDFIDRYVFPHGELPHLSLAVARMSEAGLEVVDVESLRLHYARTLDFWSANLEARLKEAARLVPEETLRIWRLYLAGCAYGFKRGWINLHQILAIRPHEDGSHELPWSRRDLYA | – | – | 2 |
